From publication PMC9482650, “Quantitative fragmentomics allow affinity mapping of interactomes” (Nature Communications, 2022)

T1: APBA2_1, Q99767
T1 sequence (Q99767 563-664, limits assumed, looked up): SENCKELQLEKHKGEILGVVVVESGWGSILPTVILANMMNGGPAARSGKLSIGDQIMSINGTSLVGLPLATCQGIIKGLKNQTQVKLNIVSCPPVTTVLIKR

T2: DLG3_1, Q92796
T2 sequence (Q92796 125-227, limits assumed, looked up): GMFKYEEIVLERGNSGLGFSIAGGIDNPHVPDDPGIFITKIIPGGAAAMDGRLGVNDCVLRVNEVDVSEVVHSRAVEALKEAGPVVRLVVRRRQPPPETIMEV

T3: DLG3_2, Q92796
T3 sequence (Q92796 221-321, limits assumed, looked up): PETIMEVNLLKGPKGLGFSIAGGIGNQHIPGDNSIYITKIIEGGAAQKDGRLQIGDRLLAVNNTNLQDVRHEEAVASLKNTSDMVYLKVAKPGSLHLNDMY

T4: DVL3, Q92997
T4 sequence (Q92997 244-331, limits assumed, looked up): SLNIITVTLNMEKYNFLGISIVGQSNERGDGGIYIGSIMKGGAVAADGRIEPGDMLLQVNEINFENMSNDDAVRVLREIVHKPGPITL

T5: MPDZ_12, O75970
T5 sequence (O75970 1857-1958, limits assumed, looked up): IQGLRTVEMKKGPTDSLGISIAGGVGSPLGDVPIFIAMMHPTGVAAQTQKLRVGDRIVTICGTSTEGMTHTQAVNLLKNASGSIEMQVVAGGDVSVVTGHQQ

T6: NHERF3_4, Q5T2W1
T6 sequence (Q5T2W1 373-468, limits assumed, looked up): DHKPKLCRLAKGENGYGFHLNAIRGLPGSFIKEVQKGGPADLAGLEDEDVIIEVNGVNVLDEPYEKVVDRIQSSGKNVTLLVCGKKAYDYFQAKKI

T7: PARD3B_1, Q8TEW8
T7 sequence (Q8TEW8 196-299, limits assumed, looked up): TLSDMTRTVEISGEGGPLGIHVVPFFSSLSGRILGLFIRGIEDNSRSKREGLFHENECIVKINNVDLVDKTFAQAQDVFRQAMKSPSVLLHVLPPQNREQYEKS

T8: RHPN1, Q8TCX5
T8 sequence (Q8TCX5 508-602, limits assumed, looked up): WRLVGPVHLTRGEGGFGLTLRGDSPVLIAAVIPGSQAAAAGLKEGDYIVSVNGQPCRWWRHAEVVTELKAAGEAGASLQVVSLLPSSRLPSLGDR

T9: SHANK1, Q9Y566
T9 sequence (Q9Y566 658-767, limits assumed, looked up): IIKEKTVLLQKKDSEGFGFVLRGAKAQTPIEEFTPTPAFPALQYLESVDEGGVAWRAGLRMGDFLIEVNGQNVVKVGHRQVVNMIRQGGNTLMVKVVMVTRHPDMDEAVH

T10: SNTG2, Q9NY99
T10 sequence (Q9NY99 68-166, limits assumed, looked up): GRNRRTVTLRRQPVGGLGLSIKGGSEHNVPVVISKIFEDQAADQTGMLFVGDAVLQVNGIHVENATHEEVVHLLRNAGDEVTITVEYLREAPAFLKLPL

B1: NECTIN3, Q9NQS3 (peptide)
chain: SVISRREWYV
B2: PKN2, Q16513 (peptide)
chain: RDFDYIADWC

The binders below were run against T1, APBA2_1, Q99767 (assay: holdup assay). Conditions: plain residues with an end cap or a label only (N-terminal biotin on a linker: ado-ado).
Design: key: below the threshold = too weak to quantify, mostly under pKd 3.1 to 4

Binder	pKd
B1	below the threshold
B2	below the threshold

The binders below were run against T2, DLG3_1, Q92796 (assay: holdup assay). Conditions: plain residues with an end cap or a label only (N-terminal biotin on a linker: ado-ado).
Design: key: below the threshold = too weak to quantify, mostly under pKd 3.1 to 4

Binder	pKd
B1	below the threshold
B2	below the threshold

Each binder was assayed against T3, DLG3_2, Q92796 (assay: holdup assay). Conditions: plain residues with an end cap or a label only (N-terminal biotin on a linker: ado-ado).
Design: key: below the threshold = too weak to quantify, mostly under pKd 3.1 to 4

Binder	pKd
B1	3.66
B2	4.16

What follows are binders tested against T4, DVL3, Q92997 (assay: holdup assay). Conditions: plain residues with an end cap or a label only (N-terminal biotin on a linker: ado-ado).
Design: key: below the threshold = too weak to quantify, mostly under pKd 3.1 to 4

Binder	pKd
B1	4.69
B2	below the threshold

The binders below were run against FRMPD2_1, Q68DX3 (assay: holdup assay). Conditions: plain residues with an end cap or a label only (N-terminal biotin on a linker: ado-ado).
FRMPD2_1, Q68DX3, sequence (Q68DX3 770-861): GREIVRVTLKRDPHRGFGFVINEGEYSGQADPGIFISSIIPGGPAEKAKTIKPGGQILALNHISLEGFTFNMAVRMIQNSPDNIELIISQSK
Design: key: below the threshold = too weak to quantify, mostly under pKd 3.1 to 4

Binder	pKd
B1	4.51
B2	below the threshold

What follows are binders tested against GOPC, Q9HD26 (assay: holdup assay). Conditions: plain residues with an end cap or a label only (N-terminal biotin on a linker: ado-ado).
Design: key: below the threshold = too weak to quantify, mostly under pKd 3.1 to 4

Binder	pKd
B1	below the threshold
B2	below the threshold

Each binder was assayed against GORASP2, Q9H8Y8 (assay: holdup assay). Conditions: plain residues with an end cap or a label only (N-terminal biotin on a linker: ado-ado).
Design: key: below the threshold = too weak to quantify, mostly under pKd 3.1 to 4

Binder	pKd
B1	5.1
B2	3.87

Each binder was assayed against GRID2IP_2, A4D2P6 (assay: holdup assay). Conditions: plain residues with an end cap or a label only (N-terminal biotin on a linker: ado-ado).
GRID2IP_2, A4D2P6, sequence (A4D2P6 272-370): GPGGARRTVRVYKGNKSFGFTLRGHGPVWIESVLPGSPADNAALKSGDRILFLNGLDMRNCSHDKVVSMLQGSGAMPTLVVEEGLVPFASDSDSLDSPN
Design: key: below the threshold = too weak to quantify, mostly under pKd 3.1 to 4

Binder	pKd
B1	3.49
B2	below the threshold

Each binder was assayed against GRIP2_4, Q9C0E4 (assay: holdup assay). Conditions: plain residues with an end cap or a label only (N-terminal biotin on a linker: ado-ado).
GRIP2_4, Q9C0E4, sequence (Q9C0E4 446-548): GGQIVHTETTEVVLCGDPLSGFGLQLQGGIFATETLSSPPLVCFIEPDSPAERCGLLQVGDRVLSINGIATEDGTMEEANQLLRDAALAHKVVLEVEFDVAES
Design: key: below the threshold = too weak to quantify, mostly under pKd 3.1 to 4

Binder	pKd
B1	below the threshold
B2	below the threshold

What follows are binders tested against IL16_3, Q14005 (assay: holdup assay). Conditions: plain residues with an end cap or a label only (N-terminal biotin on a linker: ado-ado).
IL16_3, Q14005, sequence (Q14005 1107-1207): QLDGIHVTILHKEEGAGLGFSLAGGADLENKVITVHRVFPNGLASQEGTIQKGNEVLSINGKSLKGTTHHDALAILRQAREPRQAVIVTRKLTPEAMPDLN
Design: key: below the threshold = too weak to quantify, mostly under pKd 3.1 to 4

Binder	pKd
B1	below the threshold
B2	below the threshold

The binders below were run against Inadl_6, Q8NI35 (assay: holdup assay). Conditions: plain residues with an end cap or a label only (N-terminal biotin on a linker: ado-ado).
Inadl_6, Q8NI35, sequence (Q8NI35 1058-1167): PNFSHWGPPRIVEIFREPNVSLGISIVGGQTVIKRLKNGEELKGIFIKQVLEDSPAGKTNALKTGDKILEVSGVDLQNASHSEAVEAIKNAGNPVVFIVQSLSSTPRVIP
Design: key: below the threshold = too weak to quantify, mostly under pKd 3.1 to 4

Binder	pKd
B1	below the threshold
B2	3.56

These binders were tested against Inadl_8, Q8NI35 (assay: holdup assay). Conditions: plain residues with an end cap or a label only (N-terminal biotin on a linker: ado-ado).
Inadl_8, Q8NI35, sequence (Q8NI35 1425-1530): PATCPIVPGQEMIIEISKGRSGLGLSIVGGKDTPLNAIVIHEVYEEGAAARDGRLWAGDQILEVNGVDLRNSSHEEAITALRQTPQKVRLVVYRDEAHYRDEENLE
Design: key: below the threshold = too weak to quantify, mostly under pKd 3.1 to 4

Binder	pKd
B1	3.98
B2	4.55

What follows are binders tested against LIMK2, P53671 (assay: holdup assay). Conditions: plain residues with an end cap or a label only (N-terminal biotin on a linker: ado-ado).
LIMK2, P53671, sequence (P53671 143-248): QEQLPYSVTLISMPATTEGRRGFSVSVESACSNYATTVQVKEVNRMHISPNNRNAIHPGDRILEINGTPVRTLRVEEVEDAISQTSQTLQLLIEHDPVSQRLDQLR
Design: key: below the threshold = too weak to quantify, mostly under pKd 3.1 to 4

Binder	pKd
B1	below the threshold
B2	below the threshold

The binders below were run against LNX1_1, Q8TBB1 (assay: holdup assay). Conditions: plain residues with an end cap or a label only (N-terminal biotin on a linker: ado-ado).
LNX1_1, Q8TBB1, sequence (Q8TBB1 261-371): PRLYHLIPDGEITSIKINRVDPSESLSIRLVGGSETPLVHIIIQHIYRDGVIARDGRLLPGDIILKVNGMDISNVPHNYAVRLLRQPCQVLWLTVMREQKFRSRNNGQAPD
Design: key: below the threshold = too weak to quantify, mostly under pKd 3.1 to 4

Binder	pKd
B1	below the threshold
B2	below the threshold

Each binder was assayed against LNX1_2, Q8TBB1 (assay: holdup assay). Conditions: plain residues with an end cap or a label only (N-terminal biotin on a linker: ado-ado).
LNX1_2, Q8TBB1, sequence (Q8TBB1 371-470): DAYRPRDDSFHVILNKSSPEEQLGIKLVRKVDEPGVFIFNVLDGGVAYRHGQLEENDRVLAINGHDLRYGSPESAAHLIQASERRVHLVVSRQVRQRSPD
Design: key: below the threshold = too weak to quantify, mostly under pKd 3.1 to 4

Binder	pKd
B1	4.59
B2	3.83

What follows are binders tested against MAST1, Q9Y2H9 (assay: holdup assay). Conditions: plain residues with an end cap or a label only (N-terminal biotin on a linker: ado-ado).
MAST1, Q9Y2H9, sequence (Q9Y2H9 962-1065): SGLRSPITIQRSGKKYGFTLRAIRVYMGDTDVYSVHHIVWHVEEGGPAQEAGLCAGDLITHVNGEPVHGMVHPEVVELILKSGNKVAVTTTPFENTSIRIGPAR
Design: key: below the threshold = too weak to quantify, mostly under pKd 3.1 to 4

Binder	pKd
B1	4.34
B2	3.8

The binders below were run against MAST2, Q6P0Q8 (assay: holdup assay). Conditions: plain residues with an end cap or a label only (N-terminal biotin on a linker: ado-ado).
MAST2, Q6P0Q8, sequence (Q6P0Q8 1099-1202): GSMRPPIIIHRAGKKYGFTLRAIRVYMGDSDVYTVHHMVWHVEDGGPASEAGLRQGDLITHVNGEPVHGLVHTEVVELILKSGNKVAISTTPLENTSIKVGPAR
Design: key: below the threshold = too weak to quantify, mostly under pKd 3.1 to 4

Binder	pKd
B1	4.61
B2	3.64

The binders below were run against T5, MPDZ_12, O75970 (assay: holdup assay). Conditions: plain residues with an end cap or a label only (N-terminal biotin on a linker: ado-ado).
Design: key: below the threshold = too weak to quantify, mostly under pKd 3.1 to 4

Binder	pKd
B1	below the threshold
B2	4.2

Each binder was assayed against T6, NHERF3_4, Q5T2W1 (assay: holdup assay). Conditions: plain residues with an end cap or a label only (N-terminal biotin on a linker: ado-ado).
Design: key: below the threshold = too weak to quantify, mostly under pKd 3.1 to 4

Binder	pKd
B1	below the threshold
B2	below the threshold

Each binder was assayed against T7, PARD3B_1, Q8TEW8 (assay: holdup assay). Conditions: plain residues with an end cap or a label only (N-terminal biotin on a linker: ado-ado).
Design: key: below the threshold = too weak to quantify, mostly under pKd 3.1 to 4

Binder	pKd
B1	4.79
B2	3.54

What follows are binders tested against PARD3_3, Q8TEW0 (assay: holdup assay). Conditions: plain residues with an end cap or a label only (N-terminal biotin on a linker: ado-ado).
PARD3_3, Q8TEW0, sequence (Q8TEW0 582-685): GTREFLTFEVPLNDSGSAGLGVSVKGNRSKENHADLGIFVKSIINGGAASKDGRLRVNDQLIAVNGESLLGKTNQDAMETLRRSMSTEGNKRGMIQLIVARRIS
Design: key: below the threshold = too weak to quantify, mostly under pKd 3.1 to 4

Binder	pKd
B1	4.75
B2	3.76

What follows are binders tested against T8, RHPN1, Q8TCX5 (assay: holdup assay). Conditions: plain residues with an end cap or a label only (N-terminal biotin on a linker: ado-ado).
Design: key: below the threshold = too weak to quantify, mostly under pKd 3.1 to 4

Binder	pKd
B1	below the threshold
B2	below the threshold

Each binder was assayed against SCRIB_1, Q14160 (assay: holdup assay). Conditions: plain residues with an end cap or a label only (N-terminal biotin on a linker: ado-ado).
SCRIB_1, Q14160, sequence (Q14160 718-814): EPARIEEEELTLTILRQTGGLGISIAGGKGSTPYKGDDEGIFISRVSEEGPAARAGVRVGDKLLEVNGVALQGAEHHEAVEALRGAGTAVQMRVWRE
Design: key: below the threshold = too weak to quantify, mostly under pKd 3.1 to 4

Binder	pKd
B1	below the threshold
B2	below the threshold

Each binder was assayed against SCRIB_2, Q14160 (assay: holdup assay). Conditions: plain residues with an end cap or a label only (N-terminal biotin on a linker: ado-ado).
SCRIB_2, Q14160, sequence (Q14160 857-960): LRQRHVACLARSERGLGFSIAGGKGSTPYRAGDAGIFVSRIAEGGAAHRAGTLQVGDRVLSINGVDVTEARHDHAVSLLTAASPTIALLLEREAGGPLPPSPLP
Design: key: below the threshold = too weak to quantify, mostly under pKd 3.1 to 4

Binder	pKd
B1	below the threshold
B2	below the threshold

The binders below were run against T9, SHANK1, Q9Y566 (assay: holdup assay). Conditions: plain residues with an end cap or a label only (N-terminal biotin on a linker: ado-ado).
Design: key: below the threshold = too weak to quantify, mostly under pKd 3.1 to 4

Binder	pKd
B1	below the threshold
B2	below the threshold

Each binder was assayed against T10, SNTG2, Q9NY99 (assay: holdup assay). Conditions: plain residues with an end cap or a label only (N-terminal biotin on a linker: ado-ado).
Design: key: below the threshold = too weak to quantify, mostly under pKd 3.1 to 4

Binder	pKd
B1	below the threshold
B2	below the threshold

These binders were tested against TJP1_2, Q07157 (assay: holdup assay). Conditions: plain residues with an end cap or a label only (N-terminal biotin on a linker: ado-ado).
TJP1_2, Q07157, sequence (Q07157 181-274): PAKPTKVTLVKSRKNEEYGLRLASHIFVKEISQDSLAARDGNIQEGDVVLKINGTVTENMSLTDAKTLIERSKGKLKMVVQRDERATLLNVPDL
Design: key: below the threshold = too weak to quantify, mostly under pKd 3.1 to 4

Binder	pKd
B1	3.82
B2	3.6
